According to doi:10.1101/2022.08.12.503774 (bioRxiv, 2022):

Target: the molecule itself
Assay: cryo-EM structure

B1: MinCys EAAT3 K269C/W441C crosslinked using Hg2+ (EAAT3-X) (natural protein, human, UniProt P43005 1-524, looked up)
chain: MGKPARKGAEWKRFLKNNWVLLSTVAAVVLGITTGVLVREHSNLSTLEKFYFAFPGEILMRMLKLIILPLIISSMITGVAALDSNVSGKIGLRAVVYYFATTLIAVILGIVLVVSIKPGVTQKVGEIARTGSTPEVSTVDAMLDLIRNMFPENLVQAAFQQYKTKREEVKPPSDPEMTMTEESFTAVMTTAISKTKTKEYKIVGMYSDGINVLGLIVFALVFGLVIGKMGEKGQILVDFFNALSDATMKIVQIIMWYMPLGILFLIAGCIIEVEDWEIFRKLGLYMATVLTGLAIHSIVILPLIYFIVVRKNPFRFAMGMAQALLTALMISSSSATLPVTFRCAEENNQVDKRITRFVLPVGATINMDGTALYEAVAAVFIAQLNDLDLGIGQIITISITATSASIGAAGVPQAGLVTMVIVLSAVGLPAEDVTLIIAVDCLLDRFRTMVNVLGDAFGTGIVEKLSKKELEQMDVSSEVNIVNPFALESTILDNEDSDTKKSYVNGGFAVDKSDTISFTQTSQF
modifications: Hg2+ crosslink between C269 and C441
Does B1 bind?
Result: binds
